One assay concerns the target T1, Notch (UniProt P07207 53-2703, limits assumed).
T1 construct: whole, on cells
The assay can be described thus: confocal immunofluorescence of cells incubated with Wg conditioned medium, anti-Wg antiserum and cy3 secondary antibody.

For assay [1], the target named is Drosophila frizzled 2 (Dfz2) (Drosophila), Q9VVX3. The assay can be described thus: confocal immunofluorescence, human 293 cells transiently transfected with Dfz2, pretreated with chlorate and heparatinase.
Drosophila frizzled 2 (Dfz2) (Drosophila), Q9VVX3, sequence (Q9VVX3 other isoform, or with tags, fused parts or gaps limits assumed): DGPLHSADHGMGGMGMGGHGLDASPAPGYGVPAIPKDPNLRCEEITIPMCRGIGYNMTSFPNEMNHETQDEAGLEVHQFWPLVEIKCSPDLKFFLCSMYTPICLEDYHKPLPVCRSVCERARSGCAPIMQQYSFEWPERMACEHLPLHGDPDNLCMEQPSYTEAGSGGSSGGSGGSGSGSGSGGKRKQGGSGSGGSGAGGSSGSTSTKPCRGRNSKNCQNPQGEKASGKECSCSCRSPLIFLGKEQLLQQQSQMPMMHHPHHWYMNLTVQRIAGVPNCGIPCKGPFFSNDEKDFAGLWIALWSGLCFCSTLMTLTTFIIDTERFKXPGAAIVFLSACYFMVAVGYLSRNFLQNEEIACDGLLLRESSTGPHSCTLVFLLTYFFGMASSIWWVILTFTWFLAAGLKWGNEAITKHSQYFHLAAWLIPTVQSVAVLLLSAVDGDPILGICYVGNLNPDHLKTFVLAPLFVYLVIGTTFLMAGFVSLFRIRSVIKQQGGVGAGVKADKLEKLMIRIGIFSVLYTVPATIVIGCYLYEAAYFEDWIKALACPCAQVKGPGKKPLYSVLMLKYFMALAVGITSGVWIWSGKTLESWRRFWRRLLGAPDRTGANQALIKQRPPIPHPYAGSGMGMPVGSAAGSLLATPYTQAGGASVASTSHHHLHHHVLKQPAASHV
Assay [2] shares this target. The assay can be described thus: confocal immunofluorescence, Dfz2-transfected S2 cells incubated with Wg conditioned medium, anti-Wg antiserum.

T1 sequence (P07207 53-2703 limits assumed): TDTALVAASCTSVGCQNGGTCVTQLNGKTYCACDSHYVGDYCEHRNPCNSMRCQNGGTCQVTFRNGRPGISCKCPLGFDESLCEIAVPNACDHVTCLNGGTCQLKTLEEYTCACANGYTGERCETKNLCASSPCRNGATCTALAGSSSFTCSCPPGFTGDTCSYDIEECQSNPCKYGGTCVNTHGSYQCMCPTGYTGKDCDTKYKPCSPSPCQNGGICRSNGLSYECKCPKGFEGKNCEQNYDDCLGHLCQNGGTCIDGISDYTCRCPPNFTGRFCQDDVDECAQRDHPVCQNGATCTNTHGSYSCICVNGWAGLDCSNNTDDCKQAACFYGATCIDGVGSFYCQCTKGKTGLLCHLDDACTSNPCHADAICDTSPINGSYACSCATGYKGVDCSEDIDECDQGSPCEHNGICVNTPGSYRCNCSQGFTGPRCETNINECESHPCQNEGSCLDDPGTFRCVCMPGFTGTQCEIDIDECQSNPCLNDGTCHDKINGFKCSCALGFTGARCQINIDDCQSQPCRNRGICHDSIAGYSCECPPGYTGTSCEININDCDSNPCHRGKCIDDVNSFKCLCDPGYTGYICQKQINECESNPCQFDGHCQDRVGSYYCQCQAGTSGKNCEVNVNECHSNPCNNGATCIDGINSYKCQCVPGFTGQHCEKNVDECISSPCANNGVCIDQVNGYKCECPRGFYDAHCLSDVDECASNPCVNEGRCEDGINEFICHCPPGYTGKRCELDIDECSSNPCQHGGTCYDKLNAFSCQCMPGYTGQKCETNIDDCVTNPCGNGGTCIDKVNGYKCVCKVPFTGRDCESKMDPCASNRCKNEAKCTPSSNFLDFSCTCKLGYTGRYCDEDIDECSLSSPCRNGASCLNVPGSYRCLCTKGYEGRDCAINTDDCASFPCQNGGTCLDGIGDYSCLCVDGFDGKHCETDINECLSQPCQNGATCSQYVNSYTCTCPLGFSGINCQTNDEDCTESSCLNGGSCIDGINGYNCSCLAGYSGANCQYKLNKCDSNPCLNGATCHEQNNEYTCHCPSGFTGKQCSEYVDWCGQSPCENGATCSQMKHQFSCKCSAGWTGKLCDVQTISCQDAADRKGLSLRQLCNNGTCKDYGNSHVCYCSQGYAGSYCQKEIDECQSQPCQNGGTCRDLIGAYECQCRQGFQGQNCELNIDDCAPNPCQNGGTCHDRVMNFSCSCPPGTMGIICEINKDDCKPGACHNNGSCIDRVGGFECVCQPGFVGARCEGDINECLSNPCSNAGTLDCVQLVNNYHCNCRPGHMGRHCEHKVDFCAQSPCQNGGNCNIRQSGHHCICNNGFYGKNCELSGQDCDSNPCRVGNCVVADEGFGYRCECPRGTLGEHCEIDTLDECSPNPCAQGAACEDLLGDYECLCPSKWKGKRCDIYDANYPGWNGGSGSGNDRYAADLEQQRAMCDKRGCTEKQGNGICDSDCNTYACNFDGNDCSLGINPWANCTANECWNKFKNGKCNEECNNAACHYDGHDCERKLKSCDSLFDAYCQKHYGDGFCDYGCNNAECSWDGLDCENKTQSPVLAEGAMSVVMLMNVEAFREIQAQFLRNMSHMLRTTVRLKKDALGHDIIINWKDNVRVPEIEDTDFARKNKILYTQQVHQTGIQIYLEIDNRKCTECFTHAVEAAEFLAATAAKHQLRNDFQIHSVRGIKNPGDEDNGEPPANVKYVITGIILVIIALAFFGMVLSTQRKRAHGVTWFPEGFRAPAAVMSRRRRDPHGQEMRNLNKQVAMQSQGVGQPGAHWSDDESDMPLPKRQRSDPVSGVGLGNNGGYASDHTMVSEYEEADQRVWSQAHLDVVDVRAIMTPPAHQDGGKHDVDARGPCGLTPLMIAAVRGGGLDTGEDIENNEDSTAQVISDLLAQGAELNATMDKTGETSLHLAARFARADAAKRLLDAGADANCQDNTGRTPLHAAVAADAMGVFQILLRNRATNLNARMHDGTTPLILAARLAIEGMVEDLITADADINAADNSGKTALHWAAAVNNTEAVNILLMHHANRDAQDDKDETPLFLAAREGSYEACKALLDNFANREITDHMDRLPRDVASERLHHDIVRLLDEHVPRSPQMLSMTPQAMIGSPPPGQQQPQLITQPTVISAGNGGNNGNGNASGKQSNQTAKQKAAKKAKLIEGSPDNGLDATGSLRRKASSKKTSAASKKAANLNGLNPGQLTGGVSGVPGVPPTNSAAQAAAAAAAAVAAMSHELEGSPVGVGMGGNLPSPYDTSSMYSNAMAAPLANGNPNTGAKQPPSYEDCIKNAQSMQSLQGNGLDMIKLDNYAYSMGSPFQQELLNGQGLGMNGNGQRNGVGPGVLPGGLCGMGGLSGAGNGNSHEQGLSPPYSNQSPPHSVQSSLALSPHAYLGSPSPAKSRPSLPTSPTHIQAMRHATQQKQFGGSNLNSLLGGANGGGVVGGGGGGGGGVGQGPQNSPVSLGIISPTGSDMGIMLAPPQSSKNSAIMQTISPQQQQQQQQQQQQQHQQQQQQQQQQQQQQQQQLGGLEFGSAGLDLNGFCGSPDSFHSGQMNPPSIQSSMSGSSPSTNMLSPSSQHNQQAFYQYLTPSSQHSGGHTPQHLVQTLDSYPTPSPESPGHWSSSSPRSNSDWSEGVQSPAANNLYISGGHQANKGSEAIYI

B1: wingless (Wg) protein (ligand, Drosophila, UniProt P09615 18-468, looked up)
chain: GSSLSQVEGKQKSGRGRGSMWWGIAKVGEPNNITPIMYMDPAIHSTLRRKQRRLVRDNPGVLGALVKGANLAISECQHQFRNRRWNCSTRNFSRGKNLFGKIVDRGCRETSFIYAITSAAVTHSIARACSEGTIESCTCDYSHQSRSPQANHQAGSVAGVRDWEWGGCSDNIGFGFKFSREFVDTGERGRNLREKMNLHNNEAGRAHVQAEMRQECKCHGMSGSCTVKTCWMRLANFRVIGDNLKARFDGATRVQVTNSLRATNALAPVSPNAAGSNSVGSNGLIIPQSGLVYGEEEERMLNDHMPDILLENSHPISKIHHPNMPSPNSLPQAGQRGGRNGRRQGRKHNRYHFQLNPHNPEHKPPGSKDLVYLEPSPSFCEKNLRQGILGTHGRQCNETSLGVDGCGLMCCGRGYRRDEVVVVERCACTFHWCCEVKCKLCRTKKVIYTCL
notes: mature; Used as concentrated conditioned medium, not purified; It was detected as bands of about 52 kD, 'the size of the mature Wg protein'; also called soluble Wg protein; metabolically labeled Wg protein
For the molecule B1, in the assay with Notch, the binding result is recorded as “no binding”. Also, in assay [1], the percent of transfected cells positive was 10 to 20%. For the same molecule, the percent of cells stained in assay [2] was 80%.

Source of the values: US20070269808A1 (published 2007).
